Measured values: PMC3024409, “Protein-Protein Interactions within Late Pre-40S Ribosomes” (PLoS ONE, 2011)

B1: Ltv1 (untagged) (natural protein, S. cerevisiae, UniProt P34078 1-463, looked up)
chain: MSKKFSSKNSQRYVVVHRPHDDPSFYDTDASAHVLVPVSNPNKTSPEADLRKKDVSSTKPKGRRAHVGEAALYGINFDDSEYDYTQHLKPIGLDPENSIFIASKGNEQKVEKKNIEDLFIEPKYRRDEIEKDDALPVFQRGMAKPEYLLHQQDTTDEIRGFKPDMNPALREVLEALEDEAYVVNDDVVVEDISKKTQLQGDNYGEEEKEDDIFAQLLGSGEAKDEDEFEDEFDEWDIDNVENFEDENYVKEMAQFDNIENLEDLENIDYQADVRRFQKDNSILEKHNSDDEFSNAGLDSVNPSEEEDVLGELPSIQDKSKTGKKKRKSRQKKGAMSDVSGFSMSSSAIARTETMTVLDDQYDQIINGYENYEEELEEDEEQNYQPFDMSAERSDFESMLDDFLDNYELESGGRKLAKKDKEIERLKEAADEVSKGKLSQRRNRERQEKKKLEKVTNTLSSLKF
notes: Ltv1, S. cerevisiae; gene amplified from genomic DNA with primers from the start codon to the stop codon, cloned between SfoI and BamHI of pSV272; also called export adaptor Ltv1; source: E. coli Rosetta, purified (Ni-NTA, TEV cleavage, MonoQ, gel filtration); not shown: His6-MBP, N-terminal, cleaved
B6: Rio2 (untagged) (enzyme, S. cerevisiae, UniProt P40160 1-425, looked up)
chain: MKLDTSHMRYLTTDDFRVLQAVEQGSRSHEVVPTPLIHQISGMRSQSGTNRAISDLAKLSLISKMRNVKYDGYRLTYNGIDYLALKTMLNRDTVYSVGNTIGVGKESDIYKVSDKNGNPRVMKIHRLGRTSFHSVRNNRDYLKKSNQGANWMHLSRLAANKEYQFMSMLYSKGFKVPEPFDNSRHIVVMELIEGYPMRRLRKHKNIPKLYSDLMCFIVDLANSGLIHCDFNEFNIMIKDKLEDENDCGFVVIDFPQCISIQHQDADYYFQRDVDCIRRFFKKKLKYEPKPDSSMLDTEGFGDGYKYAYPDFKRDVKRTDNLDELVQASGFSKKHPGDRGLETAVESMRNAVYNSDDDMSNDEAEEENGEGDYSEEDEYYDSELDNESSEDDSEDAQEEENERIIEALSSGVENLKMDKLGNYILE
notes: Rio2, S. cerevisiae; Cloning into the NheI site of pET23a may leave a few vector residues before the first methionine; also called kinase Rio2; protein kinase Rio2; source: E. coli Rosetta, purified (Hi-Trap Q, MonoQ, gel filtration)

Key:
Assay in all cases: pull-down; 3 µM MBP-tagged bait and 5 µM untagged prey in 50 mM HEPES pH 7.5, 150 mM KCl; 10 min at room temperature, 1 h at 4°C with amylose resin; washed, eluted with 20 mM maltose; SDS-PAGE, Coomassie
Conditions in all cases: both partners purified
(MBP-)Enp1 = target: T1, (MBP-)Enp1 (S. cerevisiae, UniProt P38333 1-483)
T1 construct: Enp1, S. cerevisiae; gene amplified from genomic DNA, cloned between SfoI and BamHI of pSV272; source: E. coli Rosetta, purified (Ni-NTA, MonoQ, gel filtration); not shown: His6-MBP, N-terminal, kept
T1 sequence (looked up): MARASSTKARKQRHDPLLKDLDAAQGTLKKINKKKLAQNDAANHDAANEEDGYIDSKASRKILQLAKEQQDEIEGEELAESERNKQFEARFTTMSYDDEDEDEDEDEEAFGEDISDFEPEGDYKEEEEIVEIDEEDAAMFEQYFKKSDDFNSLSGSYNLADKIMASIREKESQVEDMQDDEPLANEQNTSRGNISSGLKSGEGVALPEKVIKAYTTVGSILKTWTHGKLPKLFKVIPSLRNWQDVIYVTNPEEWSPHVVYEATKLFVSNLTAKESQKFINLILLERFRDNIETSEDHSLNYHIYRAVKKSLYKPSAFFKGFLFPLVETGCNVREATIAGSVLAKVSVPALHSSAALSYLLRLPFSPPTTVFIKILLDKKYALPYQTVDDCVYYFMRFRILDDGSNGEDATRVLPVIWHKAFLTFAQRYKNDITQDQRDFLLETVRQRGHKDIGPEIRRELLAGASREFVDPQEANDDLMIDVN

Enp1 (untagged) = target: T2, Enp1 (untagged) (S. cerevisiae, UniProt P38333 1-483)
T2 construct: Enp1, S. cerevisiae; gene amplified from genomic DNA, cloned between SfoI and BamHI of pSV272; source: E. coli Rosetta, purified (Ni-NTA, TEV cleavage, MonoQ, gel filtration); not shown: His6-MBP, N-terminal, cleaved
T2 sequence (looked up): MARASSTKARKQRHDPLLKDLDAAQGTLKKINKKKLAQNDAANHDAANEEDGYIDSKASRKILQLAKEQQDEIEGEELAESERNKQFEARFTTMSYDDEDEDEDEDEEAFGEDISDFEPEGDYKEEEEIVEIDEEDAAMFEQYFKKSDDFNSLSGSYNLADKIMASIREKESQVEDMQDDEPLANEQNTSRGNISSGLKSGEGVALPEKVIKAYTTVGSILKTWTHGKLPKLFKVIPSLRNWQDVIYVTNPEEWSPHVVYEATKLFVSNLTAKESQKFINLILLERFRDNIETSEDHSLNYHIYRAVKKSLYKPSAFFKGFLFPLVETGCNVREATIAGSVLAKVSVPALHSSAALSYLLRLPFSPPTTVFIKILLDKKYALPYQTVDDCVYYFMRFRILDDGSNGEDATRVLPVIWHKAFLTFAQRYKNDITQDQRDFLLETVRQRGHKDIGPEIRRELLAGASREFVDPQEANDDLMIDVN

Rio2 (untagged) = target: B6
Ltv1 (untagged) = target: B1
(MBP-)Rio2 = target: T3, (MBP-)Rio2 (S. cerevisiae, UniProt P40160 1-425)
T3 construct: Rio2, S. cerevisiae; gene amplified from genomic DNA with primers from the start codon to the stop codon, cloned between SfoI and BamHI of pSV272; 93 kDa as printed; source: E. coli Rosetta, purified (Ni column, MonoQ, gel filtration); not shown: His6-MBP, N-terminal, kept
T3 sequence (looked up): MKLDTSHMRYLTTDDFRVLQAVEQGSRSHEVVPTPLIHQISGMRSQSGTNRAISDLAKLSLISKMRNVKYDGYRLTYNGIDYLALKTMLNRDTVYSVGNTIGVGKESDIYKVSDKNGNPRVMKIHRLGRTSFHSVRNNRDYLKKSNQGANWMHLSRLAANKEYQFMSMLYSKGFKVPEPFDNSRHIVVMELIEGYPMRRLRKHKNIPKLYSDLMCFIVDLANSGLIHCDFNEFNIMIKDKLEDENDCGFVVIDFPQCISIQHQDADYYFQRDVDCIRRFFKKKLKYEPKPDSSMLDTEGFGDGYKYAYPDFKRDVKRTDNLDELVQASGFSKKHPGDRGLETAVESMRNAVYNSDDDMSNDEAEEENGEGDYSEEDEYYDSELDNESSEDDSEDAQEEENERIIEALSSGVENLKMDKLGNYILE

(MBP-)Tsr1 = target: T4, (MBP-)Tsr1 (S. cerevisiae, UniProt Q07381 1-788)
T4 construct: Tsr1, S. cerevisiae; gene amplified from genomic DNA with primers from the start codon to the stop codon, cloned between SfoI and HindIII of pSV272; source: E. coli Rosetta, purified (Ni-NTA, MonoQ, gel filtration; TEV protease omitted); not shown: His6-MBP, N-terminal, kept
T4 sequence (looked up): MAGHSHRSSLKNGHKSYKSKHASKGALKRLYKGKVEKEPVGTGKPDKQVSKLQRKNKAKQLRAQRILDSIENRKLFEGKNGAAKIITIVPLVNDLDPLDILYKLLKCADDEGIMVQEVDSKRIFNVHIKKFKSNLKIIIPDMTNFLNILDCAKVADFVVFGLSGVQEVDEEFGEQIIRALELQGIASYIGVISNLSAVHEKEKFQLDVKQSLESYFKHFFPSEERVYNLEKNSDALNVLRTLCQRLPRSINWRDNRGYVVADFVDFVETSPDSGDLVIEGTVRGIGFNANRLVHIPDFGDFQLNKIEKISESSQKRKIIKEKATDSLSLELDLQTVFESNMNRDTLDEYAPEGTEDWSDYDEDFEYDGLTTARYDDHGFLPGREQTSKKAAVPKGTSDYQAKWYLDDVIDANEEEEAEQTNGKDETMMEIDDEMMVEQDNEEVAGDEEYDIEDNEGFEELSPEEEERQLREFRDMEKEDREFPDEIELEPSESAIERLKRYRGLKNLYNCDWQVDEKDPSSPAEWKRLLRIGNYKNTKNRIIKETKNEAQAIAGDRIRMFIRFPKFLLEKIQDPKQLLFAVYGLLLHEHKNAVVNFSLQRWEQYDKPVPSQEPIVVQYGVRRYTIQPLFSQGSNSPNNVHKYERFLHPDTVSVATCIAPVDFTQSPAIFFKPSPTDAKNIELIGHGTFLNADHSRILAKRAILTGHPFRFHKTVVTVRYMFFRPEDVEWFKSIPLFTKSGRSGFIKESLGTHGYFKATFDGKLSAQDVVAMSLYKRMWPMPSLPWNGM

B1
binding result ((MBP-)Enp1): binds

B2: (MBP-)Ltv1 (natural protein, S. cerevisiae, UniProt P34078 1-463, looked up)
chain: MSKKFSSKNSQRYVVVHRPHDDPSFYDTDASAHVLVPVSNPNKTSPEADLRKKDVSSTKPKGRRAHVGEAALYGINFDDSEYDYTQHLKPIGLDPENSIFIASKGNEQKVEKKNIEDLFIEPKYRRDEIEKDDALPVFQRGMAKPEYLLHQQDTTDEIRGFKPDMNPALREVLEALEDEAYVVNDDVVVEDISKKTQLQGDNYGEEEKEDDIFAQLLGSGEAKDEDEFEDEFDEWDIDNVENFEDENYVKEMAQFDNIENLEDLENIDYQADVRRFQKDNSILEKHNSDDEFSNAGLDSVNPSEEEDVLGELPSIQDKSKTGKKKRKSRQKKGAMSDVSGFSMSSSAIARTETMTVLDDQYDQIINGYENYEEELEEDEEQNYQPFDMSAERSDFESMLDDFLDNYELESGGRKLAKKDKEIERLKEAADEVSKGKLSQRRNRERQEKKKLEKVTNTLSSLKF
notes: Ltv1, S. cerevisiae; gene amplified from genomic DNA with primers from the start codon to the stop codon, cloned between SfoI and BamHI of pSV272; source: E. coli Rosetta, purified (Ni-NTA, MonoQ, gel filtration; TEV protease omitted); not shown: His6-MBP, N-terminal, kept
binding result (Enp1 (untagged)): binds

B3: (MBP-)Rps15 (natural protein, S. cerevisiae, UniProt Q01855 2-142, looked up)
chain: SQAVNAKKRVFKTHSYRGVDLEKLLEMSTEDFVKLAPARVRRRFARGMTSKPAGFMKKLRAAKLAAPENEKPAPVRTHMRNMIIVPEMIGSVVGIYNGKAFNQVEIRPEMLGHYLGEFSITYTPVRHGRAGATTSRFIPLK
notes: ribosomal protein Rps15, S. cerevisiae; gene amplified from genomic DNA, cloned between SfoI and HindIII of pSV272; source: E. coli Rosetta, purified (Ni-NTA, MonoQ, gel filtration); not shown: His6-MBP, N-terminal, kept
binding result (Rio2 (untagged)): binds
binding result (Ltv1 (untagged)): binds

B4: (MBP-)Dim1 (enzyme, S. cerevisiae, UniProt P41819 1-318, looked up)
chain: MGKAAKKKYSGATSSKQVSAEKHLSSVFKFNTDLGQHILKNPLVAQGIVDKAQIRPSDVVLEVGPGTGNLTVRILEQAKNVVAVEMDPRMAAELTKRVRGTPVEKKLEIMLGDFMKTELPYFDICISNTPYQISSPLVFKLINQPRPPRVSILMFQREFALRLLARPGDSLYCRLSANVQMWANVTHIMKVGKNNFRPPPQVESSVVRLEIKNPRPQVDYNEWDGLLRIVFVRKNRTISAGFKSTTVMDILEKNYKTFLAMNNEMVDDTKGSMHDVVKEKIDTVLKETDLGDKRAGKCDQNDFLRLLYAFHQVGIHFS
notes: Dim1, S. cerevisiae; gene amplified from genomic DNA with primers from the start codon to the stop codon, cloned between SfoI and HindIII of pSV272; source: E. coli Rosetta, purified (Ni-NTA, MonoS, gel filtration; no TEV protease); not shown: His6-MBP, N-terminal, kept
binding result (Rio2 (untagged)): binds

B5: Dim1 (untagged) (enzyme, S. cerevisiae, UniProt P41819 1-318, looked up)
chain: MGKAAKKKYSGATSSKQVSAEKHLSSVFKFNTDLGQHILKNPLVAQGIVDKAQIRPSDVVLEVGPGTGNLTVRILEQAKNVVAVEMDPRMAAELTKRVRGTPVEKKLEIMLGDFMKTELPYFDICISNTPYQISSPLVFKLINQPRPPRVSILMFQREFALRLLARPGDSLYCRLSANVQMWANVTHIMKVGKNNFRPPPQVESSVVRLEIKNPRPQVDYNEWDGLLRIVFVRKNRTISAGFKSTTVMDILEKNYKTFLAMNNEMVDDTKGSMHDVVKEKIDTVLKETDLGDKRAGKCDQNDFLRLLYAFHQVGIHFS
notes: Dim1, S. cerevisiae; gene amplified from genomic DNA with primers from the start codon to the stop codon, cloned between SfoI and HindIII of pSV272; also called methylase Dim1; source: E. coli Rosetta, purified (Ni-NTA, TEV cleavage, MonoS, gel filtration); not shown: His6-MBP, N-terminal, cleaved
binding result ((MBP-)Rio2): binds

B6
binding result ((MBP-)Tsr1): binds
